What was measured:
[1] = target: T1, recombinant human αvβ3 integrin (human, UniProt P06756 31-992; P05106 27-718); assay: SPR (Biacore)
T1 construct: Used in ELISA and immobilised on the Biacore chip; construct not described; also called hαvβ3; AVB3

[2] = target: T2, recombinant human αvβ6 integrin (human, UniProt P06756 31-992; P18564 22-707); assay: SPR (Biacore)
T2 construct: Used in ELISA and immobilised on the Biacore chip; construct not described; also called hαvβ6; AVB6

[3] = target: recombinant human αvβ8 integrin (human) (UniProt P06756); assay: SPR (Biacore), additional experiments
[4] = target: T3, recombinant mouse αvβ8 integrin (mouse, UniProt P43406 31-988; Q0VBD0 22-681, limits assumed); assay: SPR (Biacore), additional experiments
T3 construct: Recombinant protein immobilised on the Biacore chip
T3 sequence (P43406 31-988 limits assumed, chain 1 of 2): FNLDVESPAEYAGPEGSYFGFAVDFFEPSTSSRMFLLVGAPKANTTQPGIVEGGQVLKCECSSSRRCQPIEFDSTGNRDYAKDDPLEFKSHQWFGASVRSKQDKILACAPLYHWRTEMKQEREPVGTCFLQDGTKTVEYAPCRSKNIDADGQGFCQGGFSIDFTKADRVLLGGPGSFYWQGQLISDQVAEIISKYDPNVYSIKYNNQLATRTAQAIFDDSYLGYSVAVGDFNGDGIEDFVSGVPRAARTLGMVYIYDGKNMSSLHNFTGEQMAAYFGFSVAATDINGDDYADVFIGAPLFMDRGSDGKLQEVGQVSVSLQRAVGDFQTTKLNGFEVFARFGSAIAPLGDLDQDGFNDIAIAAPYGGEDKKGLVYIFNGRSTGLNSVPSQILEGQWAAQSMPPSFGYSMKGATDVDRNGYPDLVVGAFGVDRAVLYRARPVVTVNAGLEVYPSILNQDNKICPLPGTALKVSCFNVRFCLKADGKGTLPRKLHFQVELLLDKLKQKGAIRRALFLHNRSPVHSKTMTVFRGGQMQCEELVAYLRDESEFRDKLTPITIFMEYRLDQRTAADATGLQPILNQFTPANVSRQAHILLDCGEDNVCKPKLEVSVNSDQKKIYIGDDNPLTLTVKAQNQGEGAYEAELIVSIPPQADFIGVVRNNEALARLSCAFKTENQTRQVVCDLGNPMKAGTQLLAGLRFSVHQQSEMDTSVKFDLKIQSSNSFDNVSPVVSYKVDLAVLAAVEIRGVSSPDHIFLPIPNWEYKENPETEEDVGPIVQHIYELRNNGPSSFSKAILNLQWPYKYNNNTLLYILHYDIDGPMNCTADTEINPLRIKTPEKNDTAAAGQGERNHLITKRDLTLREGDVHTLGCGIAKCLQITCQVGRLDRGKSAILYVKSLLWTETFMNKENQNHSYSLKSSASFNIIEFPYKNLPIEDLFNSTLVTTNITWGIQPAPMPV
T3 sequence (Q0VBD0 22-681 limits assumed, chain 2 of 2): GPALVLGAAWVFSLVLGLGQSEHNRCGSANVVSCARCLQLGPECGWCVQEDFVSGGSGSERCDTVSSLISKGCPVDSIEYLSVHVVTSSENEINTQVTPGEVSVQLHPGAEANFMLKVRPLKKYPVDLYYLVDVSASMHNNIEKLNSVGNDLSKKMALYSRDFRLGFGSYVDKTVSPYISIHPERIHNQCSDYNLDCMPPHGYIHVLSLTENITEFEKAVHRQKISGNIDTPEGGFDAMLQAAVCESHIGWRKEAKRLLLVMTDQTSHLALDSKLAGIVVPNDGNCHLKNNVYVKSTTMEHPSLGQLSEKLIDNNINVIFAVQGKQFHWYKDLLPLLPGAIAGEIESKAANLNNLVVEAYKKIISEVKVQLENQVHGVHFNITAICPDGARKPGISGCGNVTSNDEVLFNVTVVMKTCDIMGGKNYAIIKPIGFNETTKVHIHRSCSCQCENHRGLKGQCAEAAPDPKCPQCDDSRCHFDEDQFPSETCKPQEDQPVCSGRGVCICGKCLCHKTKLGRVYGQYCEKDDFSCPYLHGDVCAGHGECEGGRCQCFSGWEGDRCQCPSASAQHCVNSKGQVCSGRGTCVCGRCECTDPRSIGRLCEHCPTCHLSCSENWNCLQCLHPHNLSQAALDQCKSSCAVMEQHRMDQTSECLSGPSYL
Experimental: (§1) More specifically, recombinant αvβ8 integrin (e.g., R&D Systems) was biotin labeled via primary amines and immobilized on a Sensor Chip SA using a Biacore™ T200 instrument (GE Healthcare Life Sciences). Fab binding experiments were performed at 25° C. using a 30 μl/min flow rate in 0.01 M HEPES pH 7.4, 0.15 M NaCl, 1-2 mM MgCl₂, and 0.005% v/v surfactant P20 (HBS-P) buffer. Association was monitored for 5-10 minutes and dissociation for a further 15-20 minutes for each Fab concentration. After each injection, the chip surface was regenerated with IgG elution buffer (Thermo Fisher Scientific). All data was analyzed using the Biacore™ T200 Evaluation software. Data was dual background subtracted using the adjacent flow cell coupled with streptavidin without captured integrin, and buffer only injections. Kinetic constants for at least three experiments were obtained and reported as the mean.

[5] = target: T4, recombinant cynomolgus monkey αvβ8 integrin (cynomolgus monkey, limits assumed); assay: SPR (Biacore), additional experiments
T4 construct: Recombinant protein immobilised on the Biacore chip; also called cyno αvβ8; cynomolgus αvβ8
T4 chain 1: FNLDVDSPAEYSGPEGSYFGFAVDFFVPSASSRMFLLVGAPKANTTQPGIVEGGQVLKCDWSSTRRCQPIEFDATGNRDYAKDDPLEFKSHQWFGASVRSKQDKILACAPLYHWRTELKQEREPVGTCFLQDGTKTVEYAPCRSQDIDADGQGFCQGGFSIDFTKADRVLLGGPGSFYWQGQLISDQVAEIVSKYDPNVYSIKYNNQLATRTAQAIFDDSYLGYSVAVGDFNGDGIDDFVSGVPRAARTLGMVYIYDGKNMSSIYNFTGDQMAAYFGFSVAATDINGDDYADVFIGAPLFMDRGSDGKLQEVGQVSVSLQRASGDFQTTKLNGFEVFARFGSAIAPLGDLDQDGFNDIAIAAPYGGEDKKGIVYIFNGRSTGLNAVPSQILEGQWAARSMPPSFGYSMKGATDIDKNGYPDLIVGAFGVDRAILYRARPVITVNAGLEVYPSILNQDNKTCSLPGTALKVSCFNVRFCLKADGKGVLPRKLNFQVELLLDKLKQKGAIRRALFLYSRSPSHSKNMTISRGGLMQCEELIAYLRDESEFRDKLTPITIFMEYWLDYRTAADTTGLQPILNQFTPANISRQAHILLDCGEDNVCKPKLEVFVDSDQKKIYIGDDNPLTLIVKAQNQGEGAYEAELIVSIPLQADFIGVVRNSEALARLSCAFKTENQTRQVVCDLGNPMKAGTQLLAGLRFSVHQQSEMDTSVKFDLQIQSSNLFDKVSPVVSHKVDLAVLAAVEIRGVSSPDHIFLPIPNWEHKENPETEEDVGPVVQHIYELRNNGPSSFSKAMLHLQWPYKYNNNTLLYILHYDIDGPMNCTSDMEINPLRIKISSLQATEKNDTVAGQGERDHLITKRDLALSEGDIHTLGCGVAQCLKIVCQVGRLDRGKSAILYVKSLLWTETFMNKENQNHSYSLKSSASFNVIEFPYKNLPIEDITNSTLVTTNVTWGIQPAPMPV
T4 chain 2: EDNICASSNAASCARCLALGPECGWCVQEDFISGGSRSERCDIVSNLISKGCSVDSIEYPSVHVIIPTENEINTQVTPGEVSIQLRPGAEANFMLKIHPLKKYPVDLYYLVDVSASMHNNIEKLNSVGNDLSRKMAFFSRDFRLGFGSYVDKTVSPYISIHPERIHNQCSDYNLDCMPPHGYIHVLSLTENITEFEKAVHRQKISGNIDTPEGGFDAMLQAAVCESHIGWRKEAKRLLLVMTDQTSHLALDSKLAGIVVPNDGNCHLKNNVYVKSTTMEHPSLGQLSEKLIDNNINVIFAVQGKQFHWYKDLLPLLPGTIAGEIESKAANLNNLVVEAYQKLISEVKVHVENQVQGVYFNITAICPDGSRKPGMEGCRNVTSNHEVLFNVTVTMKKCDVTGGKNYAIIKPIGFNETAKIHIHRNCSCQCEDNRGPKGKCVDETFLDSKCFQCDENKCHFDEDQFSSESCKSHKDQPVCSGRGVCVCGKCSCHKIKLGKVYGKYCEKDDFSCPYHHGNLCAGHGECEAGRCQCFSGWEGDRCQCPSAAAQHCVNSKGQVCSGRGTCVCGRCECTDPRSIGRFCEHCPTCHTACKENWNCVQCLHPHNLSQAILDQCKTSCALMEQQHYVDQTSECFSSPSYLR
Experimental: as §1

[6] = target: recombinant human αvβ8 integrin (human) (UniProt P06756); assay: SPR (Biacore T200), Fab over biotinylated recombinant αvβ8 on streptavidin chip, n>=3
[7] = target: T3, recombinant mouse αvβ8 integrin; assay: as above
Experimental: as §1
(§2) To evaluate the monomeric KD of the Fab ADWA11 2.4, also referred to herein as ADWA-11 VH05-2/VK01(2.4) and ADWA11 5-2 2.4, and the parental mouse IgG, recombinant human, cynomolgus, mouse, and rat αvβ8 was immobilized on a Biacore chip and the ka and kd of the Fabs were determined as generally described herein (Table 6).

[8] = target: T4, recombinant cynomolgus monkey αvβ8 …; assay: as above
Experimental: as §1, §2

[9] = target: T5, recombinant rat αvβ8 integrin (rat, UniProt F1LZX9 31-987; A0A0G2JVU1 43-682); assay: as above
T5 construct: Recombinant protein immobilised on the Biacore chip
Experimental: as §1, §2

[10] = target: human αvβ8 integrin on U251 cells (human, UniProt P06756 31-1048); assay: flow cytometry, Fab binding to fixed U251 cells (MFI APC-A); EC50 unit inferred, axis Log10 [Ab] (nM)

T2 sequence (P18564 22-707 limits assumed, one chain of several): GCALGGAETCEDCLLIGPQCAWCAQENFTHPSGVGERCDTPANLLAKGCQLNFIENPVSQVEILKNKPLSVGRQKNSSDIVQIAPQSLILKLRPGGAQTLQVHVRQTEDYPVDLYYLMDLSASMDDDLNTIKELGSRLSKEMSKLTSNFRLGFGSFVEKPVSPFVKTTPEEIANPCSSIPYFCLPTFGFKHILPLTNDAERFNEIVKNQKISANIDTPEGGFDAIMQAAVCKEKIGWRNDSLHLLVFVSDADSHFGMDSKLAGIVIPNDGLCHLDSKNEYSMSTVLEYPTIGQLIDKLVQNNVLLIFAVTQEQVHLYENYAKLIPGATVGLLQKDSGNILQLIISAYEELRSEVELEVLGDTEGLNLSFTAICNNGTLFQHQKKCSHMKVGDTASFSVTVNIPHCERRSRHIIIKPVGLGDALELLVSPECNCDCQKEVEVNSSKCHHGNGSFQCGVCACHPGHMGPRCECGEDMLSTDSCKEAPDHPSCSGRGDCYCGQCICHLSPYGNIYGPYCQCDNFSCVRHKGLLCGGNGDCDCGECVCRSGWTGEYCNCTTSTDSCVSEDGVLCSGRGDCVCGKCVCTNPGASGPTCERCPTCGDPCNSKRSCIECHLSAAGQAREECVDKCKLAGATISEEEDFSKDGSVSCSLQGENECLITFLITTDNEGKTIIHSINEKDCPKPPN
T1 sequence (P05106 27-718 limits assumed, one chain of several): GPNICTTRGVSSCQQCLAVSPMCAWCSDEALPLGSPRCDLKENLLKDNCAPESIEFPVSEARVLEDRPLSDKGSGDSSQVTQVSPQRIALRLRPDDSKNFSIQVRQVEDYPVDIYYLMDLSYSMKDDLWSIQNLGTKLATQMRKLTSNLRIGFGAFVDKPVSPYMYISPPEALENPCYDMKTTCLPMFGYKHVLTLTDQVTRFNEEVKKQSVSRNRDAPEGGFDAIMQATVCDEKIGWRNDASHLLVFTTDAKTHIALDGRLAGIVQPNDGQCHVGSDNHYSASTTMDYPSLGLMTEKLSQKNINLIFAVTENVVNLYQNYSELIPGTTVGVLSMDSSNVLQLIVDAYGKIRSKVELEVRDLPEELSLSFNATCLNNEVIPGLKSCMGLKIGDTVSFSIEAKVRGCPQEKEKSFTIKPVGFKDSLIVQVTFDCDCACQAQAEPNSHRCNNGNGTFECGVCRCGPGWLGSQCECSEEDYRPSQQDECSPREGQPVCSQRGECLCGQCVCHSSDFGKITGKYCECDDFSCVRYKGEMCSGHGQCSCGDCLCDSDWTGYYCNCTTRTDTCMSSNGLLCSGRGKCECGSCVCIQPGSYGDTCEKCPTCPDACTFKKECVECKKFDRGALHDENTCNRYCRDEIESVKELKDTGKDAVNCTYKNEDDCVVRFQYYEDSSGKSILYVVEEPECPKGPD

B1: ADWA11 2.4 Fab (Fab, V domains shown)
VH: EVQLVESGGGLVQPGGSLRLSCAASGFNIKDYYMNWVRQAPGKGLEWVGWIDPDQGNTIYEPKFQGRFTISADTSKNSAYLQMNSLRAEDTAVYYCARRLLMDYWGQGTLVTVSS
VL: DIQMTQSPSSLSASVGDRVTITCRSTKSLSHFNGNTYLFWYQQKPGKAPKRLIYYMSSLASGVPSRFSGSGSGTDFTLTISSLQPEDFATYYCQQSLEYPFTFGGGTKVEIK
notes: Fab; also called ADWA11 5-2 2.4; ADWA11_5-2 2.4 Fab
[1]
  binding result: no binding
[2]
  binding result: no binding
[3]
  Kd: < 0.1 nM
[4]
  Kd: 0.0708 nM
[5]
  Kd: < 0.1 nM
[6]
  Kd: < 0.2 nM
  koff: < 3e-05 s⁻¹
  kon: 161000 M⁻¹ s⁻¹
[7]
  Kd: ≤ 0.2 nM
  koff: 1.82e-05 s⁻¹
  kon: 257000 M⁻¹ s⁻¹
[8]
  Kd: ≤ 0.2 nM
  koff: ≤ 2e-05 s⁻¹
  kon: 172000 M⁻¹ s⁻¹
[9]
  Kd: ≤ 0.2 nM
  koff: ≤ 2e-05 s⁻¹
  kon: 341000 M⁻¹ s⁻¹
[10]
  EC50: 0.205 nM

Reference: US20200079855A1 (Pfizer, published 2020)
